Results on 13 molecules are retold here after publication PMC3519385 (Structure (London, England : 1993), 2012).

Several values for one entry are separate records, joined by “and”; a condition that tells them apart may be missing. Equal entries are not always repeated. Where only a bound is given, the exact number is not on record here.

The labels stand for the following.
T1: Gemin2 (UniProt O14893 1-280)
T1 sequence (looked up): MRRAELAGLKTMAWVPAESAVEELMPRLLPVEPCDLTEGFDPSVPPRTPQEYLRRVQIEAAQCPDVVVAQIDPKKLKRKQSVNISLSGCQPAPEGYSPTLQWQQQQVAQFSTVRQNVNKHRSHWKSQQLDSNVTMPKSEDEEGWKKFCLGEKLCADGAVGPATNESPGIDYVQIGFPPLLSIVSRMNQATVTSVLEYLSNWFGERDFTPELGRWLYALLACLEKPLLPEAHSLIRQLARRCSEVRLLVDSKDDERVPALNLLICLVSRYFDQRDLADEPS

B1: MBP-SMN^229–294 (domain or fragment, human, UniProt Q16637 229-294, looked up)
chain: LSCWLPPFPSGPPIIPPPPPICPDSLDDADALGSMLISWYMSGYHTGYYMGFRQNQKEGRCSHSLN
B2: SMN Δexon5 (SMNΔ5) (natural protein, human, UniProt Q16637-2 1-262, looked up)
chain: MAMSSGGSGGGVPEQEDSVLFRRGTGQSDDSDIWDDTALIKAYDKAVASFKHALKNGDICETSGKPKTTPKRKPAKKNKSQKKNTAASLQQWKVGDKCSAIWSEDGCIYPATIASIDFKRETCVVVYTGYGNREEQNLSDLLSPICEVANNIEQNAQENENESQVSTDESENSRSPGNKSDNIKPKSAPWNSFLPPPPPMPGPRLGPGKIIPPPPPICPDSLDDADALGSMLISWYMSGYHTGYYMGFRQNQKEGRCSHSLN

One data set concerns the molecule itself.
Test: not given
What is called stoichiometry N is the number of molecules, sites or subunits per partner or assembly. With MLISWYMSGYHTGYYMGFRQNQKEGRCSHSLN (domain or fragment, human, UniProt Q16637 263-294, looked up) [MBP-YG^263–294], the “stoichiometry N” value came to 2. Same read-out and setting: the result for B1 reads 4 and 8.

A further data set addresses T1, Gemin2. Nature of the data set: co-purification.
For B2, the “stoichiometry N” value is 1.

Another data set deals with the molecule itself. Nature of the data set: SEC-MALS. In general terms: Size exclusion chromatography separates by hydrodynamic size, large species first.
Regarding DSLDDADALASMLISWYMSGYHTGYYMGFRQNQKEGRCSHSLN (domain or fragment, human, UniProt Q16637 252-294, looked up) [MBP-YG^252–294 G261A], the “stoichiometry N” value was no less than 4.

Take DSLDDADALGSMLISWYMSGYHTGYYMGFRQAQKEGRCSHSLN (domain or fragment, human, UniProt Q16637 252-294, looked up) [MBP-YG^252–294 N283A]: the “stoichiometry N” value was no less than 4. On the same count and under the same terms, the result for DSLDDADALGSMLISWYMAGYHTGYYMGFRQNQKEGRCSHSLN (domain or fragment, human, UniProt Q16637 252-294, looked up) [MBP-YG^252–294 S270A] reads no less than 4; that for DSLDDADALGSMLISWYMSGYHTGYYMAFRQNQKEGRCSHSLN (domain or fragment, human, UniProt Q16637 252-294, looked up) [MBP-YG^252–294 G279A], no less than 4.

A further data set deals with the molecule itself. Nature of the data set: SEC-MALS. This is another data set of the same source.
For DSLDDADALGSMLISWYMSGYHTGYYMCFRQNQKEGRCSHSLN (domain or fragment, human, UniProt Q16637 252-294, looked up) [MBP-YG^252–294 G279C], the “stoichiometry N” value was no less than 4.

Take DSLDDADALGSMLISWYMSGYHIGYYMGFRQNQKEGRCSHSLN (domain or fragment, human, UniProt Q16637 252-294, looked up) [MBP-YG^252–294 T274I]: the “stoichiometry N” value was found to be 4. Take DSLDDADALGSMLISWYMSGYHTGYYMGFRQNQKEGRCSHSLN (domain or fragment, human, UniProt Q16637 252-294, looked up) [MBP-YG^252–294]: the “stoichiometry N” value was determined as 4.

Regarding DSLDDADALGIMLISWYMSGYHTGYYMGFRQNQKEGRCSHSLN (domain or fragment, human, UniProt Q16637 252-294, looked up) [MBP-YG^252–294 S262I], the “stoichiometry N” value is no less than 4. As for DSLDDADALGGMLISWYMSGYHTGYYMGFRQNQKEGRCSHSLN (domain or fragment, human, UniProt Q16637 252-294, looked up) [MBP-YG^252–294 S262G], the “stoichiometry N” value turned out to be 4. On the same count and under the same terms, under DSLDDADALGSMLISWYMSGYRTGYYMGFRQNQKEGRCSHSLN (domain or fragment, human, UniProt Q16637 252-294, looked up) [MBP-YG^252–294 H273R] stands 4.
